Measurements from the MegaScale stability set (Tsuboyama et al. 2023).

B1: EHEE_rd4_0086 (parent)
chain: EIHIRTNGEEQARKVYKMLAKRNYDVKIEQHNGQWVVTAS

Variants of: B1
Experiment: folding stability dG (cDNA display proteolysis); higher = more stable
Conditions: PBS, room temperature

Folding stability dG [kcal/mol] of substitutions, site by site:
E9: F 2.33 | T 0.873 | S 1.14 | Q 1.52 | P 1.92 | H 1.55 | I 2.26 | G 0.745 | V 1.76 | R 1.77 | Y 2.52 | N 0.702 | M 1.75 | D 0.638 | K 1.69 | A 1.53 | W 2.41 | L 2.44
M18: Q 1.5 | D 1.08 | H 1.54 | L 1.82 | F 2.25 | E 1.67 | W 2.61 | G 0.727 | T 1.12 | Y 2.37 | A 1.84 | S 1.35 | N 1.14 | I 1.81 | R 1.25 | K 1.37 | V 1.48
G8: S 3.25 | T 2.86 | E 2.06 | A 1.79 | L 2.05 | D 2.96 | P 0.221 | Q 1.94 | V 2.06 | N 2.94 | H 2.21 | Y 2.22 | M 1.88 | W 2.02 | R 2.17 | I 2.21 | K 2.1 | F 2.22
K14: G 0.786 | M 1.87 | F 1.89 | L 1.91 | T 1.32 | A 1.86 | S 1.34 | N 1.29 | D 1.21 | W 2.35 | I 1.82 | V 1.42 | Q 1.8 | E 1.68 | R 2.12 | H 1.53 | Y 2.02
K21: P -0.238 | T 1.67 | C 2.71 | F 1.7 | H 1.69 | Q 2.1 | N 1.77 | L 2.06 | E 2 | W 1.61 | R 1.95 | V 1.63 | D 2.13 | A 2.4 | Y 1.61 | S 2.09 | G 1.82 | I 1.82 | M 2.15
R13: Q 1.47 | L 1.89 | C 2.74 | T 1.18 | N 1.36 | D 0.502 | Y 1.85 | M 1.79 | V 1.27 | K 1.92 | E 1.04 | G 0.376 | H 1.32 | I 1.67 | A 1.03 | F 1.5 | S 0.759 | W 2.33
R22: I 1.31 | T 1.16 | L 2.45 | Q 1.76 | K 1.85 | M 2.32 | D 1.08 | G 1.16 | Y 2.05 | P -0.563 | W 2.29 | E 1.29 | N 1.45 | F 2.04 | V 1.01 | H 1.86 | S 1.37 | A 1.84
D25: Y 2.09 | V 2.31 | Q 2.23 | P 1.08 | H 2.15 | S 1.99 | M 2.21 | N 2.27 | L 2.21 | E 1.91 | I 2.34 | G 1.22 | K 2.36 | A 1.96 | T 2.25 | W 1.89 | R 2.25 | F 2.14
K27: F 1.33 | I 1.45 | E 0.722 | A 1.26 | L 1.12 | G 0.682 | D 0.311 | H 1.66
K17: C 3.19 | S 1.77 | Y 1.99 | F 1.86 | R 2.02 | L 2.08 | I 2.03 | H 1.83 | D 2.06 | W 2.11 | N 2.07 | V 1.91 | M 2.15 | G 1.33 | Q 2.1 | T 1.91 | A 2.25 | P -0.583 | E 2.37
Y16: L 1.55 | V 1.23 | H 1.03 | Q 1.38 | S 1.5 | E 0.776 | I 0.973 | R 1.15 | G 1.88 | A 2.76 | T 0.377 | W 1.38 | K 1.07 | F 1.93 | M 2.15 | N -0.095
N7: Q 1.85 | W 2.08 | S 1.95 | V 1.66 | Y 1.99 | T 1.99 | R 2.06
V26: I 1.09 | T 0.533 | F -0.182 | M 0.338 | G -0.027 | P 1.02 | S -0.013 | A 1.1 | R -0.177 | L 0.829 | Y -0.299 | W 0.204
A20: W 1.46 | M 2.21 | R 2.14 | V 2.18 | Q 2.16 | S 1.78 | Y 1.55 | I 2.17 | G 0.826 | E 1.52 | L 2.51 | T 1.75 | F 1.58 | N 0.982 | K 2.43 | H 1.36 | D 0.486
Y24: W 2 | N 0.737 | M 1.71 | Q 0.902 | G 0.656 | R 1.3 | V 1.29 | K 1.25 | L 1.69 | P 0.856 | A 1.08 | H 1.18 | I 1.42 | F 1.93 | S 0.914 | D 0.514 | T 0.886 | E 0.458
Q11: G 1.02 | D 1.67 | V 1.61 | I 1.84 | K 1.4 | Y 2 | M 1.95 | L 1.89 | W 2.1 | R 1.51 | N 1.35 | T 1.59 | A 1.89 | P 0.372 | H 1.96 | F 2.05 | E 2.1 | S 1.55
V15: R 0.424 | H 0.525 | F 1.93 | A 1.12 | Y 1.97 | M 1.62 | T 0.624 | C 2.6 | I 2.49 | K 0.551 | N -0.279 | L 2.35 | S -0.033 | Q 0.153 | W 2.43 | E -0.159 | D -0.861
L19: H -0.775 | V -0.352 | F 1.72 | W 1.02 | M 1.27 | Y 1.35 | A -0.32 | I 0.108
N23: L 1.74 | E 1.12 | Q 1.67 | A 1.69 | D 1.33 | C 2.9 | K 1.68 | P 0.533 | Y 2.86 | S 1.55 | M 1.89 | R 1.68 | T 0.87 | F 2.79 | H 2.35 | I 0.912 | V 0.904 | G 3.46 | W 2.36
A12: C 2.51 | T 0.108 | Y -0.25 | L 0.213 | W 0.477 | Q -0.947 | V -0.114 | M 0.486 | G 0.134 | K -0.265 | R -0.218 | F -0.019 | I 0.115 | S 0.335
E10: D 1.74 | Q 1.81 | R 2.17 | P 1.37 | L 1.98 | F 1.73 | T 1.78 | G 1.64 | S 1.93 | W 2.06 | Y 1.81 | I 1.84 | K 2.15 | N 1.72 | V 1.81 | H 1.58 | M 1.89 | A 2.22
